From patent US10159707B2, “Treatment of cancers with immunostimulatory HIV Tat derivative polypeptides” (PIN Pharma, Inc., priority 2013, dated 2018) come the findings set out here.

For one experiment, the system named is 4T1 cells. In words: Repeated dosing of Nani-P2 and cyclophosphamide in 4T1 tumor-bearing mice. The following applies: cyclophosphamide 80 mg/kg IP weekly from day 10. Format: in vivo, mouse. As for the experimental part: Four groups of 10 BALB/c mice were implanted with 1×10^4 4 T1 cells SC into the mammary fat pad. Treatment was initiated when tumor diameters reached 4-5 mm, on day 10. Control mice were injected IV with PBS at 3 days intervals, while alternating treatment mice received 3 doses of drug every 3 days in rotating 10 day cycles. Tumor burden (tumor size mm^3) was calculated using a standard formula. CY (cyclophosphamide alone) mice were injected IP weekly with 80 mg/kg per mouse beginning on day 10. Cy/Nani-P2 (cyclophosphamide first followed by Nani-P2) mice were first injected IP with cyclophosphamide (80 mg/kg) at 3 days intervals for three doses starting at day 10 and then injected IV with Nani-P2 (40 ng) at 3 days intervals for three doses in rotation. The cycle of 3 doses of CY followed by 3 doses of Nani-P2 was repeated until day 50. Nani-P2/CY (Nani-P2 first followed by cyclophosphamide) mice were first injected IV with Nani-P2 (40 ng) at 3 day intervals for 3 doses starting on day 10 and then injected i.p. with cyclophosphamide at 3 day intervals in rotation. The cycle of 3 doses of Nani-P2 followed by 3 doses of CY was repeated until day 50.

A further experiment concerns 4T1 breast tumor. In words: 4T1 primary breast tumor growth in BALB/c mice. Format: in vivo, mouse. The following applies: 400 ng partially-purified, SC, days 0, 7, 14, 21 (Nani-P3 also 2 μg); from day 15, p<0.05. How it is done:
BALB/c mice were injected (SC) with 1×10^4 4 T1, 1×10^5 TS/A or 2×10^5 SM1 cells, respectively, in the left mammary pad on day 0. […] The control group received PBS injection. […] Tumor burden (tumor volume) was measured and recorded three times weekly. Animals were sacrificed when tumors reached a volume of 15 mm in diameter and the tumors harvested and weighed.
The therapeutic effect of systemic administration of synthetic, Tat-derived compositions in murine models of breast cancer was investigated. […]

“Also recorded” adds a separate entry of the source.

On to `O=P1(N(CCCl)CCCl)NCCCO1` (stereo not drawn) [cyclophosphamide, reference compound], for which, in the experiment with 4T1 cells, the “mice dead by day 42” value is listed as 10/10.

B1: Nani-P3: Tat derivative polypeptide SEQ ID NO:4; TF SIVsmm, cysteine-rich murine βdefensin, C-terminal HIV-1 (protein)
chain: METPLKEQENSLESCREHSSSISEVDVPTPVSCLRKGGRCWNRCIGNTRQIGSCGVPFLKCCKRKPFTRKGLGISYGRKKRRQRRRAPQDSQTHQASLSKQPASQSRGDPTGPTESKKKVERETETDPFD
modifications: Tat derivative polypeptide
For B1, the “4T1 tumor burden versus PBS control” value with 4T1 breast tumor was “less effective at suppressing 4T1 primary tumor growth; also recorded: no difference”.

B2: Nani-P1: Tat derivative polypeptide SEQ ID NO:2; TF HIV-1, cysteine-rich HIV-1, C-terminal HIV-1 (protein)
chain: MEPVDANLEAWKHAGSQPRKTACTTCYCKKCCFHCQVCFTRKGLGISYGRKKRRQRRRAPQDSQTHQASLSKQPASQSRGDPTGPTESKKKVERETETDPFD
modifications: Tat derivative polypeptide
For the molecule B2, the “4T1 tumor burden versus PBS control” value in the experiment on 4T1 breast tumor is “significantly reduced tumor burden; also recorded: significant”.
